Reference: US20090214428A1 (HENRY M JACKSON FOUNDATION FOR THE ADVANCEMENT OF MILITARY …, published 2009)
Read-outs that look alike come from different tables or passages of the source.

How the values were obtained:
[1] = target: T1, soluble Hendra virus G glycoprotein (sG) (Hendra virus, UniProt O89343 71-604); experiment: ELISA, purified soluble Fab on coated sG
T1 sequence: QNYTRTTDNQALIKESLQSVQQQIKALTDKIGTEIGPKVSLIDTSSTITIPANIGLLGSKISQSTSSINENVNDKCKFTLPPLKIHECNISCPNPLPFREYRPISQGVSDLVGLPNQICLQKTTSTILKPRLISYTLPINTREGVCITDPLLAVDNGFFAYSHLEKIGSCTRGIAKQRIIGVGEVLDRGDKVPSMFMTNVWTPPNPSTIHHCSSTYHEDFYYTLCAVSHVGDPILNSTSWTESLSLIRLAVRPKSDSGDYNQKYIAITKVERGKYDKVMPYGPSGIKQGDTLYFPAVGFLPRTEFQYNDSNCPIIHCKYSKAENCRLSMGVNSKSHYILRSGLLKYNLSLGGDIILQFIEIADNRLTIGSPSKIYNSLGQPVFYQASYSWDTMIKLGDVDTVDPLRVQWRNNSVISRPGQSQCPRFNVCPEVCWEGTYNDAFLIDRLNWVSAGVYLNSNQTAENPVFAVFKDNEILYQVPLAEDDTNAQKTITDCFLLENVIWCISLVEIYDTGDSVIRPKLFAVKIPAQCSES

[2] = target: T2, HeV G envelope glycoprotein (on effector cells expressing HeV F and G, or on infectious HeV) (Hendra virus, UniProt O89343 1-604); experiment: cell-based or functional assay
T2 sequence: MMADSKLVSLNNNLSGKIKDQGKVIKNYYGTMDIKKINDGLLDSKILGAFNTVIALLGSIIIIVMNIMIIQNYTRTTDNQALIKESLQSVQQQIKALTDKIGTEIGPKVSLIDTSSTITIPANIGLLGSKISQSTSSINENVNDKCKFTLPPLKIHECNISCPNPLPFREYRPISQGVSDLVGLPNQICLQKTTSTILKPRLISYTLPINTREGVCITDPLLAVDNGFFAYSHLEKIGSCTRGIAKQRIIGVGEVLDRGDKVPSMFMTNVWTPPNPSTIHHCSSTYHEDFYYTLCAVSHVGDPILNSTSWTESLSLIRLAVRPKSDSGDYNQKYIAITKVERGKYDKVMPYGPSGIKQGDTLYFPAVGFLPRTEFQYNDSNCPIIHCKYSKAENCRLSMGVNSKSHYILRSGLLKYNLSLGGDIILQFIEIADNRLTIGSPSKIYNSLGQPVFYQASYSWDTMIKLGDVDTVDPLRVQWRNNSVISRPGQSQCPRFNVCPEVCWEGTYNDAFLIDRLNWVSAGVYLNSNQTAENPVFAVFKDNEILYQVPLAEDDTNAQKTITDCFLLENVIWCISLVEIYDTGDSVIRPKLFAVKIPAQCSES

[3] = target: T1, soluble Hendra virus G glycoprotein (sG); experiment: SPR (Biacore 1000), sG immobilised on CM5, Fab injected, 25 C, 1:1 Langmuir fit
[4] = target: T1, soluble Hendra virus G glycoprotein (sG)
[5] = target: T1, soluble Hendra virus G glycoprotein (sG); experiment: SPR (Biacore); upper end of the range told of the group, tied to m103 by Table 5

B1: Fab m108 (Fab, V domains shown)
VH: EVQLVESGGGLVKPGGSLRLSCAASGFTFSDYYMSWIRQAPGKGLEWVSYISSSGSTIYYADSVKGRFTISRDNAKNSLYLQMNSLRAEDTAVYYCARVGGAFDIWGQGTMVTVSS
VL: NFMLTQPHSVSGSPGKTVTISCTRSSGSIASNYVQWYRQSPGSAPTTVIYEGYQRPSGVPDRFSGSIDSSSNSASLTISGLETEDEADYYCQSYDATNHQVVFGGGTKLTVL
B1 was tested, and the A450 [1] was 0.5 A450.

B2: Fab m116 (Fab, V domains shown)
VH: EVQLVQSGAEVKKPGSSVKVSCKASGGAFSSYAISWVRQAPGQGLEWMGGIIPIFGTANYAQKFQGRVTITADESTSTAYMELSSLRSEDTAVYYCARDSAGLGAWGQGTLVAVSS
VL: DIQMTQSPSSLSASVGDRVTITCRASQGISSALAWYQQKPGKAPKLLIYDASSLESGVPSRFSGSGSGTDFTLTISSLQPEDFATYYCQQFNSYPLTFGQGTRLEIKR
For B2, the A450 [1] was 0.3 A450.

B3: Fab m111 (Fab, V domains shown)
VH: QVQLVQSGAEVKKPGATVKISCKVSGYTFTDYYMHWVQQAPGKGLEWMGLVDPEDGETIYAEKFQGRVTITADTSTDTAYMELSSLRSEDTAVYYCATEGADYWGQGTLVTVSS
VL: DVVMTQSPLSLPVALGQPASISCRSSQSLVHSDGNTYLNWFQQRPGQSPRRLLYKVSNRESGVPDRFSGSGSGSDFTLKISRVEAEDVGIYYCMQGTHWPPITFGQGTRLEIKR
Binder B3 has an A450 [1] of 0 A450.

B4: Fab m112 (Fab, V domains shown)
VH: QVQLVQSGAEVKKPGATVKISCKVSGYTFTDYYMHWVQQAPGKGLEWMGLVDPEDGETIYAQKFQGRVTITADTSTNTAYMELSSLRSEDTAVYYCATDGADYWDQGTLGTVST
VL: QSVLTQPPSVSGAPGQTVTISCTGSSSNIGGDSDVHWYQQLPGSAPKLLIYGNRNRPSGVPDRFSGSRSGTSASLAVIGVQADDEADYYCQCYDSSLNGYVFGPGTKVIVL
In the case of B4, the A450 [1] is reported as 0.4 A450.

B5: Fab m101 (Fab, V domains shown)
VH: QVQLVQSGAEVKKPGASVKVSCKASGGTFSSYAISWVRQAPGQGLEWMGGIIPIFGTANYAQKFQGRVTITADESTSTAYMELSSLRSGDTAVYYCARDPGGYSYGPYYYYYGMDVWGQGTTVTVSS
VL: DIQMTQSPSSVSASVGDRVTITCRASQGIGPWLAWYQQKPGKAPKFLIYRASTLQSGVPSRFSGSGSGTDFTLTISSLQPEDFATYYCQQAHSFPFTFGPGTKVDIKR
With B5 the “IC50 of HeV Env-mediated cell fusion, reporter gene assay, PCI-13 target cells” value [2] was 38 µg/mL, the A450 [1] was 1 A450 and the Kd [3] was 28 nM. It also gave a koff [3] of 0.0035 s⁻¹ and a kon [3] of 130000 M⁻¹ s⁻¹.

B6: IgG1 m101 (antibody, V domains shown)
VH: QVQLVQSGAEVKKPGASVKVSCKASGGTFSSYAISWVRQAPGQGLEWMGGIIPIFGTANYAQKFQGRVTITADESTSTAYMELSSLRSGDTAVYYCARDPGGYSYGPYYYYYGMDVWGQGTTVTVSS
VL: DIQMTQSPSSVSASVGDRVTITCRASQGIGPWLAWYQQKPGKAPKFLIYRASTLQSGVPSRFSGSGSGTDFTLTISSLQPEDFATYYCQQAHSFPFTFGPGTKVDIKR
For B6, the “IC50 of HeV Env-mediated cell fusion, reporter gene assay, PCI-13 target cells” value [2] was 1.2 µg/mL.

B7: Fab m110 (Fab, V domains shown)
VH: EVQLVQSGGGLVQPGRSLRLSCAASGFTFDDYAMHWVRQAPGKGLEWVSAISGSGGSTYYADSVKGRFTISRDNSKNTLYLQMNSLRAEDTAVYYCASEGLPETDDAFDIWGQGTMVTVSS
VL: DVVMTQSPLSLPVTPGEPASISCRSSQSLLYSDGYNYLDWYLQKPGQSPQLLIYLGSRRASGVPDRFSGSGSGTDFTLKINTVEAEDVGVYYCMQGVEIPFTFGPGTKVEIKR
B7 gave an A450 [1] of 0 A450.

B8: Fab m106 (Fab, V domains shown)
VH: QVQLQQSGAEVKKPGSSVKVSCKASGGTFSSYAISWVRQAPGQGLEWMGGIIPIFGTANYAQKFQGRVTITADKSTSTAYMELSSLRSEDTAVYYCARDQLAGYYYDSSGYHYYYYGMDVWGQGTTVTVSS
VL: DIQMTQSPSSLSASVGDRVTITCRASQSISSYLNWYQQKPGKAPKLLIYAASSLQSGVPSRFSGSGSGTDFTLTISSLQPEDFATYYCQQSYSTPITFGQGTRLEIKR
Work on B8 yielded an A450 [1] of 1.6 A450, a Kd [3] of 54 nM and a koff [3] of 0.0033 s⁻¹. For the same binder, the kon [3] was 62000 M⁻¹ s⁻¹.

B9: Fab m103 (Fab, V domains shown)
VH: EVQLVESGGGLIQPGGSLRLSCAASGFTVSSNYMSWVRQAPGKGLEWVSVIYSGGSTYYADSVKGRFTISRDNSKNTLYLQMNSLRAEDTAVYYCARDSRYHDAFDIWGQGTMVTVSS
VL: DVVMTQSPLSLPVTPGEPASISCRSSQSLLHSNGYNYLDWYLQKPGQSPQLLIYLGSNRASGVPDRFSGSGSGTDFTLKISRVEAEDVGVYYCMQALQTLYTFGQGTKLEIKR
In the case of B9, the Kd [4] is reported as 1800 nM, the A450 [1] is reported as 0.8 A450 and the Kd [5] is reported as 1000 nM.

B10: Fab m115 (Fab, V domains shown)
VH: QVQLQQSGAEVKKPGSSVKVSCKASGGTFRSYAISWVRQAPGQGLEWMGGIIPIFGTANYAQKFQGRVTITADESTSTAYMELSSLRSEDTAVYYCARGSQSYDHYYYYGMDVWGQGTTVTVSS
VL: QSALTQPASVSGSPGQSITISCTGTSSDVGGYNYVSWYQQHPGKAPKLMIFDVSNRPSGVSNRLSGSKSGNTASLTISGLQAEDEADYYCSSYTSNTVVFGGGTKLTVL
B10 gave an A450 [1] of 0.4 A450.

B11: Fab m113 (Fab, V domains shown)
VH: QVQLQQSGAEVKKPGSSVKVSCKASGGTFSSYAISWVRQAPGQGLEWMGWTNPNSGGTNYAQKLQGRVTMTTDTSTSTAYMELRSLRSDDTAVYYCANYKLQSDAFDIWGQGTMVTVSS
VL: DIQMTQSPSSLSASVGDRVTITCRASQDIGNFLVWFQQKPGKAPKSLIYAASRLQSGVPSRFSGSGSGTDFTLTISSLQPEDFATYYCQHYKSYPLTFGGGTKVEIKR
For B11, the A450 [1] was 0.1 A450.

B12: Fab m109 (Fab, V domains shown)
VH: QMQLQQWGAGLLKPSETLSLTCAVYGGSFSGYYWSWIRQPPGKGLEWIGEINHSGSTNYNPSLKSRVTISVDTSKNQFSLKLSSVTAADTAVYYCARGWFRDWYFDLWGRGTLVTVSS
VL: DIQMTQSPSSLSASVGDRVTITCRASQDIRNDLGWYQQRPGKAPKLLIYAASSLQSGVPSRFSGSGSGTDFTLTISSLQPEDSATYFCLQDYQYPWTFGQGTKVEIKR
B12 was tested, and the A450 [1] was 0 A450.

B13: Fab m105 (Fab, V domains shown)
VH: QVQLVQSGGGVVQPGRSLRLSCAASGFTFSSYAMHWVRQAPGKGLEWVAVISYDGSNKYYADSVKGRFTISRDNSKNTLYLQMNSLRAEDTAVYYCARVGGITGTADAFDIWGQGTMVTVSS
VL: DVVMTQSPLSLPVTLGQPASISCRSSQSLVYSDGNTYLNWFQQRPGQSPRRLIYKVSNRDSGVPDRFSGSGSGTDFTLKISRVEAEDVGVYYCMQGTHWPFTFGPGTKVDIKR
B13 was tested, and the A450 [1] was 0.9 A450, the Kd [3] was 69 nM and the koff [3] was 0.0051 s⁻¹. For the same binder, the kon [3] was 74000 M⁻¹ s⁻¹.

B14: Fab m107 (Fab, V domains shown)
VH: EVQLVQSGAEVKKPGASVKVSCKASGYTFTGYYMHWVRQAPGQGLEWMGIINPSGGSTSYAQKFQGRVTMTRDTSTSTVYMELSSLRSEDTAVYYCARDHVHGPDAFDIWGQGTMVTVSS
VL: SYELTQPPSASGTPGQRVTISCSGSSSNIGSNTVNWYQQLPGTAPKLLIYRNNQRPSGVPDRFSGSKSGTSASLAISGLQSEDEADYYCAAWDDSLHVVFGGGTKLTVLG
B14 gave an A450 [1] of 0.6 A450, a Kd [3] of 78 nM and a koff [3] of 0.0022 s⁻¹. It also gave a kon [3] of ~30000 M⁻¹ s⁻¹.

B15: Fab m104 (Fab, V domains shown)
VH: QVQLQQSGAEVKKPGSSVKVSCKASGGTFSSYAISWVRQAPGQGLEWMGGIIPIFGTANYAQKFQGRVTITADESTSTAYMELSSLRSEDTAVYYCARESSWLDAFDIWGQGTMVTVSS
VL: DVVMTQSPLSLSVTAGEPASISCRSSQSLLHSNGHIYLDWYLQKPGQSPQLLIYMASNRASGVPDRFSGSGSGTDFTLRINRVETEDVGIYYCMQSLHTTRTFGQGTKVEIKR
B15 showed an A450 [1] of 0.7 A450, a Kd [3] of 600 nM and a koff [3] of 0.0016 s⁻¹. For the same binder, the kon [3] was 3000 M⁻¹ s⁻¹.

B16: Fab m117 (Fab, V domains shown)
VH: QITLKESGPTLVKPTQTLTLTCTFSGFSLSTSGVGVGWIRQPPGKALEWLALIYWDDDKRYSPSLKSRLTITKDTSKNQVVLTMTNMDPVDTATYYCAHRESGPEFFQHWGQGTLVTVSS
VL: DVVMTQSPLSLPVTLGQPASISCNSSQSLVYSNGITYLNWFHQRPGQSPRRLIYQVSNWDSEVPDRFSGSGSATDFTLKISRVEADDVGIYYCMQGTHWPPTFGQGTRLEIKR
For B16, the A450 [1] was 0 A450.
